The values that follow come from publication PMC6765224, “Stereospecificity control in aminoacyl-tRNA-synthetases: new evidence of D-amino acids activation and editing” (Nucleic Acids Research, 2019).

Assay in all cases: purified protein
Substrate in series [1]: C[C@H](N)C(=O)O
As to conditions: amino acid activation, pH 7.5.

Substrate in series [2]: N[C@@H](CO)C(=O)O
As to conditions: amino acid activation.

Substrate in series [3]: C[C@@H](N)C(=O)O
As to conditions: amino acid activation, pH 7.5.

Substrate in series [4]: N[C@H](Cc1ccc(O)cc1)C(=O)O
It counts as biochemical, Thermus thermophilus. The note with it: amino acid activation, 4 mM ATP, 1 mM PPi, 10 mM MgCl2, pH 7.5, 60 °C.

Substrate in series [5]: N[C@@H](Cc1ccc(O)cc1)C(=O)O
The format is biochemical, Thermus thermophilus. The note with it: amino acid activation, 4 mM ATP, 1 mM PPi, 10 mM MgCl2, pH 7.5, 60 °C.

Substrate in series [6]: NCC(=O)O
It counts as biochemical, Thermus thermophilus. The note with it: amino acid activation, 4 mM ATP, 1 mM PPi, 10 mM MgCl2, pH 7.5, 60 °C.

Where [7] appears, read: editing-deficient mutant, 37.0 °C.
Where [8] appears, read: 4 mM ATP, 1 mM PPi, 10 mM MgCl2, pH 7.5, 60 °C, 60.0 °C.
The mark [9] stands for this setting: 4 mM ATP, 1 mM PPi, 10 mM MgCl2, pH 7.5, 60 °C, pH 7.5, 60.0 °C.

B1: E. coli C666A AlaRS (Escherichia coli K-12; C666A) (protein)
chain: SKSTAEIRQAFLDFFHSKGHQVVASSSLVPHNDPTLLFTNAGMNQFKDVFLGLDKRNYSRATTSQRCVRAGGKHNDLENVGYTARHHTFFEMLGNFSFGDYFKHDAIQFAWELLTSEKWFALPKERLWVTVYESDDEAYEIWEKEVGIPRERIIRIGDNKGAPYASDNFWQMGDTGPCGPCTEIFYDHGDHIWGGPPGSPEEDGDRYIEIWNIVFMQFNRQADGTMEPLPKPSVDTGMGLERIAAVLQHVNSNYDIDLFRTLIQAVAKVTGATDLSNKSLRVIADHIRSCAFLIADGVMPSNENRGYVLRRIIRRAVRHGNMLGAKETFFYKLVGPLIDVMGSAGEDLKRQQAQVEQVLKTEEEQFARTLERGLALLDEELAKLSGDTLDGETAFRLYDTYGFPVDLTADVCRERNIKVDEAGFEAAMEEQRRRAREASGFGADYNAMIRVDSASEFKGYDHLELNGKVTALFVDGKAVDAINAGQEAVVVLDQTPFYAESGGQVGDKGELKGANFSFAVEDTQKYGQAIGHIGKLAAGSLKVGDAVQADVDEARRARIRLNHSATHLMHAALRQVLGTHVSQKGSLVNDKVLRFDFSHNEAMKPEEIRAVEDLVNTQIRRNLPIETNIMDLEAAKAKGAMALFGEKYDERVRVLSMGDFSTELAGGTHASRTGDIGLFRIISESGTAAGVRRIEAVTGEGAIATVHADSDRLSEVAHLLKGDSNNLADKVRSVLERTRQLEKELQQLKEQAAAQESANLSSKAIDVNGVKLLVSELSGVEPKMLRTMVDDLKNQLGSTIIVLATVVEGKVSLIAGVSKDVTDRVKAGELIGMVAQQVGGKGGGRPDMAQAGGTDAAALPAALASVKGWVSAKLQ
As for B1, in “purified protein [1]” (setting [7]), the Km was 304 ± 43 µM, the turnover number (kcat) was 0.18 s⁻¹ and the kcat/Km was determined as 600 M⁻¹ s⁻¹. Moreover, in the series “purified protein [2]” (editing-deficient mutant), the Michaelis-Menten constant (Km) is 27000 ± 6000 µM and the kcat came to 0.147 ± 0.04 s⁻¹. In the series “purified protein [3]” (setting [7]), the Michaelis-Menten constant (Km) was determined as 60000 ± 20000 µM, the turnover number (kcat) turned out to be 0.1 s⁻¹ and the kcat/Km was 1.8 M⁻¹ s⁻¹.

B2: TyrRSTT (T. thermophilus tyrosyl-tRNA-synthetase) (Thermus thermophilus HB27) (protein)
chain: MAGTGHTPEEALALLKRGAEEIVPEEELLAKLKEGRPLTVKLGADPTRPDLHLGHAVVLRKMRQFQELGHKVVLIIGDFTGMIGDPSGRSKTRPPLTLEETRENAKTYVAQAGKILRQEPHLFELRYNSEWLEGLTFKEVVRLTSLMTVAQMLEREDFKKRYEAGIPISLHELLYPFAQAYDSVAIRADVEMGGTDQRFNLLVGREVQRAYGQSPQVCFLMPLLVGLDGREKMSKSLDNYIGLTEPPEAMFKKLMRVPDPLLPSYFRLLTDLEEEEIEALLKAGPVPAHRVLARLLTAAYALPQIPPRIDRAFYESLGYAWEAFGRDKEAGPEEVRRAEARYDEVAKGGIPEEIPEVTIPASELKEGRIWVARLFTLAGLTPSNAEARRLIQNRGLRLDGEVLTDPMLQVDLSRPRILQRGKDRFVRVRLSD
notes: wild type
In the case of B2, in “purified protein [4]”, the Km was determined as 27.6 ± 7.5 µM, the catalytic constant (kcat) stood at 2.2 ± 0.65 s⁻¹ and the specificity constant (kcat/Km) worked out at 80000 M⁻¹ s⁻¹. In “purified protein [5]”, the Km came out at 9 ± 2 µM, the kcat amounted to 17.4 ± 3.9 s⁻¹ and the catalytic efficiency (kcat/Km) came to 1.93e+06 M⁻¹ s⁻¹.

B3: AlaRSTT (Thermus thermophilus alanyl-tRNA-synthetase) (Thermus thermophilus HB27) (protein)
chain: MRTAEIREKFLSFFEGKGHLRLPSFSLIPEDDPSLLFTSAGMAPLKPYFLGAKPIFGGREWRRVTTCQECLRVGDIENVGRTSRHNTYFEMLGNFSFGDYFKKEAILWAWEFLTEHLRLDPGRLWVTVFEDDDEAYEIWRDLVGVPEERIGRFGEDENYWPGGAITHGPNGPSGPCSEIFYDRGPAYGTPDETGPNTGSGDRFVEIWNLVFTQYDRQGPIPGPGILKPLPQKNIDTGMGLYRVAAILQDVEDFYRTDTFFPIIQEVARMSGRPYEGKTSVSHRVIADHVRAVVAALSDGATFSNTGRGYVIRRLLRRALRHGYLLGLSDPFLHRLAPLVAELLGDFYPEMRENLPAVEKQIRLEEERFLETLEGGLKRLDALLSGLKPGEVLPGKEAFRLYDTYGFPLDLTVEIAAERGYGVDTEGFQKAMEEQQSRSRAAMAFEREIFKKGAQVLEELYAERGATEFLGYNALEAEAEVLALLAGDQSLLEAGPGTEVQVVLDKTPFYAEGGGQIGDFGLLEWPGGRARVETTRKTERGIFLHKARVEEGVLRVGERVRAVVDPRRRDTERNHTATHLLHAALRAVLGPHVRQAGSLVAPDRLRFDFTHPEPLKPEELERVELLVNRWIMADFPVTWRYMPLEEARKEGAMALFGEKYGEVVRVVRVEGSPLEGLESKELCGGCHVRRTGEIGAFLIRSEEAVSAGVRRIEAVTGEEAIRFARGSLNRLKALAERLEVGEAALEERLEKLLAELKEKEREVESLKARLVQAALGGGGGASLEEKGGLRWTVAELPGLDAKALRQAADDLVARGADVALVLSGGQAVLKLSPKAQGMGLEAGALFRALAEKAGGRGGGKGALAQGGGLDPRKAREALPGLLP
notes: His-tagged, pET28b, expressed in E. coli BL21(DE3)Star; wild type
With B3, the Michaelis-Menten constant (Km) in the series “purified protein [6]” turned out to be 22000 ± 8000 µM; in the series “purified protein [1]” (setting [8]), 139 ± 12 µM; in “purified protein [2]” (setting [9]) it was 10000 ± 2000 µM; in “purified protein [3]” (setting [8]) it was 2190 ± 500 µM. Also, the turnover number (kcat) is 6.5 ± 1.6 s⁻¹ in the series “purified protein [6]”, 7.88 s⁻¹ in “purified protein [1]” (setting [8]), 2.3 s⁻¹ in “purified protein [2]” (setting [9]) and 0.21 s⁻¹ in the series “purified protein [3]” (setting [8]). Also, the kcat/Km in “purified protein [6]” worked out at 290 M⁻¹ s⁻¹; in “purified protein [1]” (setting [8]), 56000 M⁻¹ s⁻¹; in “purified protein [2]” (setting [9]), 236 M⁻¹ s⁻¹; in the series “purified protein [3]” (setting [8]), 120 M⁻¹ s⁻¹.
